Experiment: yeast display, Sf9 membrane polyspecificity reagent, FACS + sequencing; frameworks hold sequencing errors
Outline: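 Synthetic nanobody libraries on Saccharomyces cerevisiae BJ5465 were galactose-induced for 36–48 hours, stained 1 hour at 4 °C with 10% biotinylated, detergent-solubilized Sf9 membrane reagent and enriched on streptavidin microbeads. FACS then separated cells into low and high (top ~1%) gates by anti-HA (expression) and streptavidin (reagent binding) fluorescence. Genes were colony-PCR amplified, MiSeq 2 × 250 sequenced and CDR-length filtered. A clone's polyreactivity label is that of its gate of origin.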

| Sequence | polyreactivity (PSR sort gate) |
| --- | --- |
| QVQLVESGGGLFQAGGSLRLSCAASGSTIWSYAMGWYRQAPGKERELVASITWSGGSTYADSVKGRFTISRDNAKNTVYFQMNRLKPEDTAVYYCARESTLTYYSDDFDYWGQGTQVTVSS | low polyreactivity |
| QVQLVESGGGLVQAGCSLRLSCAASGRTFYYAMGWYRQAPGKERYADSVKGRFTISRDNAKNTVYLQMNSLKPEDTAVYYCAAKVPEPTSLDQSDYWGQGTQVTVSS | low polyreactivity |
| QVQLVESGGGLVQAGGSLRLSCAASGSIFPVYTMGWYRQAPGKEREFVATITISGAITYYADSVKGRFTISRDNAKNTVYLQMTSLKPEDTAVYYCNTGPMYFPANDYWGQGTQVTVSS | low polyreactivity |
| QVQLVESGGGLVQAGGSLRLSCAASGIIFRLNAMGWYRQAPGIERELVAAILRRGGSTYYADSVKGRFTISRDNAKNTVYLQMNSLKPEDTAVYYCAKDPHGSDFGYWGQGTQVTVSS | low polyreactivity |
| QVQLVESGGGLVQAGGSLRLSCAASGFIFNIYAMGWYRQAPGKERELVAAITFSGGSTYYADSVKGRFTISRDNAKNTVYLQKNSLKPEDTAVYYCAADYLSEYTTYDYWGQGTQVTVSS | low polyreactivity |
| QVQLVESGVGLVQAGGSLRLSCAASGFTLGRNAMGWYRQAPGKERELVASISGRGGSSYYADSVKGRFTISRDNAKNSVYLQMNSLKPEDTAVYYCAARGVSGKYYYWGQGTQVTVSS | high polyreactivity |
| QVQLVESGGGLVQAGGSLRLSCAASGSIFAYAMGWYRKAPGKEMELVAAISGGSTYYADSVKGRFTISRDNAKNTVYLQMNSVKPEDTAVYYCAADLDDERYYWGQGTQVTVSS | low polyreactivity |
| QVQLVESGGGLVQAGGSLRLSCAASGFIFYPNPMGWYRQAPGKERELVAAITSGGSTYADSVKGRFTISRDNAKNTVYLQMNSLKPEDTAVYYCAAVDTSIITFWYIASDGFDYWGQGTQVTVSS | low polyreactivity |
| QVQLVESGGGLVQAGGSLRLSCAASGLIFVHYDMGWYRQAPGKERELVAAISAGGGSTYYADSVKGRFTISRYNSKNTVYLQMNSLLPEDTAVYYCIARVVNYFRPRTGAREYDFWGQGTQGTVSS | high polyreactivity |
| KLQLVESGGGLVQAGGSLRLSCADSGRIFQGNAMGWYRQAPGKERELVAAITYSGRSTFYADSVKGRFTISRDNAKNTVYLQMNRLKPEDTAFYYCAARQYWTTDLPFQRYYYWGQGTQVTVSS | low polyreactivity |
| QVQLVESGGGLVQAGGRLRLSCAASGSIFFHYAMGWYRQAPGKERERVAAITWDGGSTYYADSVKGRFTISRDNAKNTVYLQMNSLKPEDTAVYYCNADQDLSTDEDEYWGQGTQVTVLS | low polyreactivity |
| QVQLVESGGGLVQAGGSLRLSCAASGFTLGSNVMGWYRQAPGKERELVAGISQSGGRTFYADSVKGRFTISRDNAKNTVYLQMNSLKPEDTAVYYCAARRYAVEGSKNYYWGQGTQVTVSS | low polyreactivity |
| QVQLVESGGGLVQAGGSLRLSCAASGFTFSWYAMGWYRQAPGKETELVAAITRSGGSTNYADSVKGRFTISRDNAKNTVYLQMNSLKPEDTAVYYCNAAGYRRSTWWYDYWGQGTQVTVSS | high polyreactivity |
| QVQLVESGGGLVQAGGSLRLSCAASGSTFYPKAKAWNRQAPGKERELVAGISSGGGTYYADSVKGRFTISRDNAKNTVYLQMNSLKREDTAVYYCNAYFLSSSLDYWGQGTQVTVSS | low polyreactivity |
| QVQLVESGGGLVQAGGSLRLSCAASGIIFNKYAMGWYRQAPGKEREFVAAITYRGGSTYYADSVKGRFTISRDNAKNTVYLQMNSLKPEDTAVYYCAARRITTYYYWGQGTQVTVSS | high polyreactivity |
| QVQLVESGGGLVQAGGSLRLSCAASGSTIVDYAMGWYRQAPGKERELVAAITSGDSTNYADSVKGRFTISRDNAKNTVYLLMKSLKPEDTAVYYCAARLRYSFWYWDDYWGQGTQVSVSS | high polyreactivity |
| QVQLVESGGGLVQAGGSLRLSCAASGGIFKYYAMGWYRLAPGKERELVAAITSGGNTNYADSVKGRFTISRDNAKNTVYLQMNSLKPEDTAVYYCAARSISRRTWQYNYWGQGTQVTVSS | high polyreactivity |
| QVQLVESGGGLVQAGGSLRLSCAASGRIFRGYAMGWYRQAPGKERELVAAISRSGGSTYYADSVKGRFTISRDNAKNTVYLQMNSLKPEDTAVYYCAAVPYYVWYYYPIGGYWGQGTQVTVSS | high polyreactivity |
| QVQLVESGGGLVQAGGSLRLSCAASGSIFVPYGMGWYRKAPGTDRELVAAITFRTTSTYYADSVKGRFTISRDNAKNTVYLQMNSLKPEDTAVYYCNKGDYRTYPYDYWGQGTQVTVSS | low polyreactivity |
| QVQLVESGGGLVQAGGSLRLSCAASGSIFQQYAMGWYRQAPGKERELVAAITYSGDGTYYADSVKGRFTISRDNAKNTVYLQMNSLKPEDTAVYYCAAYPRDPYKEYDYWGQGNQVTVSS | low polyreactivity |
| QVQLEESGGGLVQAGGSHRLSCAASGIIFRWYTMGWYRQAPGKERELVAAISTSTGSTYYADSVKGRFTISRDNAKNTVYLQMNSLKPEDTGVYYCAAEYAYWNYESYYWGQGTQVNVSS | high polyreactivity |
| QVQLVESGGGLVQAGGSLRLSCAASGSIFGYNAMGWYRQAPGKDREFVAAIRWSSGSTYYADSVKGRFTISRDNAKNTVYLQMNSLKPEDTAVYYCATRQTYLYWGQGTQVTVSS | high polyreactivity |

| Sequence | polyreactivity (PSR sort gate) |
| --- | --- |
| QVQLLESGGGLVQAGGTLRLSCAASGSTFAKYGMGWYRQAPGKERELVAAISRSGGRTYYADSVKGRFTISRDNAKNTVYLQMNSLKPEDTAVYYCATDGIRLTRHRDYDYWGQGTQVTVSS | low polyreactivity |
| QVQLVESGGGLVQAGGSLRLSCASSGITFGRNTMGWYRQAPGKERELVAAIDSGGNTYADSVKGRFTISRDNAKNTVYLQMNSLKPEDTAVYYCDVDGGEFSSYGYWGQGTQVTVSS | low polyreactivity |
| QVQLVESGGGLVQAGGSLRLSCAASVFTVYGMGWYRQAPGKERELVAAISTGGNTYYADSVKGRFTISRDNAKNTVYLQMNSLKPEDTAVYYCNRRYRYYGLWYGYWGQGTQVTVSS | high polyreactivity |
| QGQLVESGGGLVQAGGSLRLSCAASGSIFPRYVMGWYRQAPGKERELVAAITTSGGRTYYADSVKGRFTISRDNAKKTVYLQMNSQKPVDTAVYYCAARPWGYRYGSEYVGGDYWGQGTQVTVSS | high polyreactivity |
| QVHLVESRGGLVQAGGSLRLSCAASGYTFGHYALGWYRHAPGKERELVAVITSGGSTNYADSEKGRFTISRDNAKNNVYLQMKSLKPEETAVYYCAADLYFYYVWLRDYWGQGTQVTVSS | low polyreactivity |
| QVQLVESGGGLVQAGGSLRLSCAASGSIFKVYAMGWYRQAPGKERELVASITSGGRTYADSVKGRFTISRDNAKNTVYLQMNSLKPEDTAVYYCSARSRSKFYYWGQGTQLTVSS | high polyreactivity |
| QVQLVESGGGLVQAGGSLRLSCAASGSTFYPYAMGWYRQAPGKERELVAAISSRDGRTYYADSVKGRFTISRDNAKNTVYLQMNSLKPEDTAVYYCAAVRALRKVRDYYYWGQGTQVTVSS | high polyreactivity |
| QVQLVESGGGLVQAGGSLRLSCAASGRIFYRYGMGWYRQAPGKERELVASITRGGSTYYADSVKGRFTISRDNAKYTVYLQMNSLKPEDTAVYYCATKSSAGYDYWGQGTQVTVSS | low polyreactivity |
| QVQLVESGGGLVQAGGSLSLSCAASGRTFGAYAMGWYRQAPGKERELVATITVSGGSTYYADSVKGRFTISRDNAKNTVYLQMNSLKREDTAVYYCAAEWYPYPWGYGYWGQGTQVTVSS | low polyreactivity |
| QVQLVESGGGLVQAGGSLRLSCAASGSIFEWYAMGWYRQAPGKVRELVADITYNGGSTYYADSVKGRFTISRDNAKNTVYLQMNSLKPEDTAVYYCAADYFVQVPDYYYASEYGYWGQGTQVTVSS | low polyreactivity |
| QVQLVDSGGGLVQAGGSLRLICAASGSIFIDKAMGWYRQAPGKERELVAAISWSGGRTYYADSVKGRFTISRDNAKNTVYLQMNSLKPEDTAVYYCAVDFRHPYDYDYWGQGTQVTVSS | high polyreactivity |
| QVQLVESGGGLVQAGGSLRLISAASGSTIIRNAMGWYRQAPGKERELVAAISTSGGRTHYADSVKGRFTISRDNAKTTVYLQMNSLKPEDTAVYDCAASNGYQAVTYDYWGQGTQVTVSS | high polyreactivity |
| QVQLVESGGGLVQAGGSLRLSCAASGRTFTRYAMGRYRQAPGKERELVASISGSGGRTNYADSVKGRFTISRDNAKNTVYLQMNSLKPEDTAVYYCAARYRTWFGYWGQGTQVTVSS | high polyreactivity |
| QVQLVESGGGLVQAGGRLRLSCAASGRIFYPYDMGWYRQEPGKERELVAAISRSDGITYYADSVKGRFTISRDNAKNTVYLQMKSLKPEDTPVYYCAADDPSGHYPDFEYWGQGTQVTVSS | low polyreactivity |
| QVQLVESGGGLVQAGGSLRLSCAASGIIFSSNVMGWYRQAPGKERELVAAISRSGDRTYYADSVKGRFTISRDNAKNTVYLQMNSLKPEDTAVYYCAARERVNVVSNGYWGQGTQVTVSS | high polyreactivity |
| QVQLVESGGGLVQAGGSLRLSCAASGSTFLYYAMGWYRQAPGKERELVAAITSSGGRTYFADSVKGRFTISRDNAQNTVYLQMNSLQPEDTAVYYCARGWPRREQSEYDYWGQGTQVTVSS | high polyreactivity |
| QVQLVESGGGLVQAGGSLRLSCAASGRIFQPYAMGWYRQAPGKERELVAAITRSGGSTYYADSVKGRFTISRDNAMNTVDLQLNSLKPEDTAVSYCASKVLYPYEYWGQGTQVTVSS | low polyreactivity |
| QVQLVESGGGLVQAGGSLRLSCAASGRTFRYNAMGWYRQAPGKERELVAAITQSGGSTYYADSVKGRFTISRDNAKNTVYLQMNSLKPEDTAVYYCAKVRERINYDYWGQGTQVTVSS | low polyreactivity |
| QVQLVESGGGLVQAGGSLRLSCAASGSIFSRNAMGWYRPAPGKERELVAAITSSGGRTYYADSVKGRFTISRDNAKNTVYLQMNSLKPEDTAVYYCAARARGGDWGSGDYWGQGTQVTVSS | high polyreactivity |
| QVQLVESGGGLVQAGGSLRLSCAASGSTLTDYAMGWYRQAPGKERELVAAITSDGDSTNYADSVKGRFTISRDNAKNTVYLQMNSLKPEDTAVYYCAAQGKYHYYVPAYEYWGQGTQVTVSS | low polyreactivity |
| QVQLVESGGGLVQAGGSLRLSCAASGITFRKYAMGWSRQAPGKERELVAAISAGGGRTFYADSVKGRFTISRDNAKNTVYLQMNSLKPEDTAVYYCNADLGIGYDYWGQGTQVTVSS | high polyreactivity |
